Molecular target: T1, wildtype SARM1 (endogenous, in wildtype mouse dorsal root ganglion neurons) (mouse) (UniProt Q6PDS3)
T1 sequence (looked up): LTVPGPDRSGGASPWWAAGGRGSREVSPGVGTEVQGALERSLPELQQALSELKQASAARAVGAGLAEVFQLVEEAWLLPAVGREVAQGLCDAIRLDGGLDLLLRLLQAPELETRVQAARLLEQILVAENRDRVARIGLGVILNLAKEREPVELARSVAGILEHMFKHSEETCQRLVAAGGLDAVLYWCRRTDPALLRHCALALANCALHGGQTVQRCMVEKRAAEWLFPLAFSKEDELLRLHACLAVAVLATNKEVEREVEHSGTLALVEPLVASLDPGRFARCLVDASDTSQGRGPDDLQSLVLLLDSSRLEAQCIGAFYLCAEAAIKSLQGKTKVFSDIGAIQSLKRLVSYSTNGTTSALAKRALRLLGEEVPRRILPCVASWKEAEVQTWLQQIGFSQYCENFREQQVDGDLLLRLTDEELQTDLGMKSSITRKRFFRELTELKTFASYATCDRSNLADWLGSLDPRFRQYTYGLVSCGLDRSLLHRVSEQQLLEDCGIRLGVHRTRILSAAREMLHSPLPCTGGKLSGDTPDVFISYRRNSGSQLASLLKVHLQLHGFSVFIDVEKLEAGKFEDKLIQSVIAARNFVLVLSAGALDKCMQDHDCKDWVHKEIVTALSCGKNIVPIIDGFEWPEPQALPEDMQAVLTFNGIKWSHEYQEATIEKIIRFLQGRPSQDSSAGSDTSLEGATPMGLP
Assay: cell-based or functional assay

B1: SARM1 K628D (enzyme, not shown: large carriers)
chain: LAVPGPDGGGGTGPWWAAGGRGPREVSPGAGTEVQDALERALPELQQALSALKQAGGARAVGAGLAEVFQLVEEAWLLPAVGREVAQGLCDAIRLDGGLDLLLRLLQAPELETRVQAARLLEQILVAENRDRVARIGLGVILNLAKEREPVELARSVAGILEHMFKHSEETCQRLVAAGGLDAVLYWCRRTDPALLRHCALALGNCALHGGQAVQRRMVEKRAAEWLFPLAFSKEDELLRLHACLAVAVLATNKEVEREVERSGTLALVEPLVASLDPGRFARCLVDASDTSQGRGPDDLQRLVPLLDSNRLEAQCIGAFYLCAEAAIKSLQGKTKVFSDIGAIQSLKRLVSYSTNGTKSALAKRALRLLGEEVPRPILPSVPSWKEAEVQTWLQQIGFSKYCESFREQQVDGDLLLRLTEEELQTDLGMKSGITRKRFFRELTELKTFANYSTCDRSNLADWLGSLDPRFRQYTYGLVSCGLDRSLLHRVSEQQLLEDCGIHLGVHRARILTAAREMLHSPLPCTGGKPSGDTPDVFISYRRNSGSQLASLLKVHLQLHGFSVFIDVEKLEAGKFEDKLIQSVMGARNFVLVLSPGALDDCMQDHDCKDWVHKEIVTALSCGKNIVPIIDGFEWPEPQVLPEDMQAVLTFNGIKWSHEYQEATIEKIIRFLQGRSSRDSSAGSDTSLEGAAPMGPTATT
- axon degeneration after axotomy: 24 h

B2: SARM1-H685Y (enzyme, not shown: large carriers)
chain: LAVPGPDGGGGTGPWWAAGGRGPREVSPGAGTEVQDALERALPELQQALSALKQAGGARAVGAGLAEVFQLVEEAWLLPAVGREVAQGLCDAIRLDGGLDLLLRLLQAPELETRVQAARLLEQILVAENRDRVARIGLGVILNLAKEREPVELARSVAGILEHMFKHSEETCQRLVAAGGLDAVLYWCRRTDPALLRHCALALGNCALHGGQAVQRRMVEKRAAEWLFPLAFSKEDELLRLHACLAVAVLATNKEVEREVERSGTLALVEPLVASLDPGRFARCLVDASDTSQGRGPDDLQRLVPLLDSNRLEAQCIGAFYLCAEAAIKSLQGKTKVFSDIGAIQSLKRLVSYSTNGTKSALAKRALRLLGEEVPRPILPSVPSWKEAEVQTWLQQIGFSKYCESFREQQVDGDLLLRLTEEELQTDLGMKSGITRKRFFRELTELKTFANYSTCDRSNLADWLGSLDPRFRQYTYGLVSCGLDRSLLHRVSEQQLLEDCGIHLGVHRARILTAAREMLHSPLPCTGGKPSGDTPDVFISYRRNSGSQLASLLKVHLQLHGFSVFIDVEKLEAGKFEDKLIQSVMGARNFVLVLSPGALDKCMQDHDCKDWVHKEIVTALSCGKNIVPIIDGFEWPEPQVLPEDMQAVLTFNGIKWSYEYQEATIEKIIRFLQGRSSRDSSAGSDTSLEGAAPMGPTATT
- axon degeneration (degeneration index) after axotomy of wildtype DRG neurons: 72 h

B3: SARM1 C629S (enzyme, not shown: large carriers)
chain: LAVPGPDGGGGTGPWWAAGGRGPREVSPGAGTEVQDALERALPELQQALSALKQAGGARAVGAGLAEVFQLVEEAWLLPAVGREVAQGLCDAIRLDGGLDLLLRLLQAPELETRVQAARLLEQILVAENRDRVARIGLGVILNLAKEREPVELARSVAGILEHMFKHSEETCQRLVAAGGLDAVLYWCRRTDPALLRHCALALGNCALHGGQAVQRRMVEKRAAEWLFPLAFSKEDELLRLHACLAVAVLATNKEVEREVERSGTLALVEPLVASLDPGRFARCLVDASDTSQGRGPDDLQRLVPLLDSNRLEAQCIGAFYLCAEAAIKSLQGKTKVFSDIGAIQSLKRLVSYSTNGTKSALAKRALRLLGEEVPRPILPSVPSWKEAEVQTWLQQIGFSKYCESFREQQVDGDLLLRLTEEELQTDLGMKSGITRKRFFRELTELKTFANYSTCDRSNLADWLGSLDPRFRQYTYGLVSCGLDRSLLHRVSEQQLLEDCGIHLGVHRARILTAAREMLHSPLPCTGGKPSGDTPDVFISYRRNSGSQLASLLKVHLQLHGFSVFIDVEKLEAGKFEDKLIQSVMGARNFVLVLSPGALDKSMQDHDCKDWVHKEIVTALSCGKNIVPIIDGFEWPEPQVLPEDMQAVLTFNGIKWSHEYQEATIEKIIRFLQGRSSRDSSAGSDTSLEGAAPMGPTATT
- axon degeneration after axotomy: 24 h

B4: SARM1-H685A (enzyme, not shown: large carriers)
chain: LAVPGPDGGGGTGPWWAAGGRGPREVSPGAGTEVQDALERALPELQQALSALKQAGGARAVGAGLAEVFQLVEEAWLLPAVGREVAQGLCDAIRLDGGLDLLLRLLQAPELETRVQAARLLEQILVAENRDRVARIGLGVILNLAKEREPVELARSVAGILEHMFKHSEETCQRLVAAGGLDAVLYWCRRTDPALLRHCALALGNCALHGGQAVQRRMVEKRAAEWLFPLAFSKEDELLRLHACLAVAVLATNKEVEREVERSGTLALVEPLVASLDPGRFARCLVDASDTSQGRGPDDLQRLVPLLDSNRLEAQCIGAFYLCAEAAIKSLQGKTKVFSDIGAIQSLKRLVSYSTNGTKSALAKRALRLLGEEVPRPILPSVPSWKEAEVQTWLQQIGFSKYCESFREQQVDGDLLLRLTEEELQTDLGMKSGITRKRFFRELTELKTFANYSTCDRSNLADWLGSLDPRFRQYTYGLVSCGLDRSLLHRVSEQQLLEDCGIHLGVHRARILTAAREMLHSPLPCTGGKPSGDTPDVFISYRRNSGSQLASLLKVHLQLHGFSVFIDVEKLEAGKFEDKLIQSVMGARNFVLVLSPGALDKCMQDHDCKDWVHKEIVTALSCGKNIVPIIDGFEWPEPQVLPEDMQAVLTFNGIKWSAEYQEATIEKIIRFLQGRSSRDSSAGSDTSLEGAAPMGPTATT
- axon degeneration (degeneration index) after axotomy of wildtype DRG neurons: 72 h

B5: SARM1-K193R (enzyme, not shown: large carriers)
chain: LAVPGPDGGGGTGPWWAAGGRGPREVSPGAGTEVQDALERALPELQQALSALKQAGGARAVGAGLAEVFQLVEEAWLLPAVGREVAQGLCDAIRLDGGLDLLLRLLQAPELETRVQAARLLEQILVAENRDRVARIGLGVILNLAKEREPVELARSVAGILEHMFRHSEETCQRLVAAGGLDAVLYWCRRTDPALLRHCALALGNCALHGGQAVQRRMVEKRAAEWLFPLAFSKEDELLRLHACLAVAVLATNKEVEREVERSGTLALVEPLVASLDPGRFARCLVDASDTSQGRGPDDLQRLVPLLDSNRLEAQCIGAFYLCAEAAIKSLQGKTKVFSDIGAIQSLKRLVSYSTNGTKSALAKRALRLLGEEVPRPILPSVPSWKEAEVQTWLQQIGFSKYCESFREQQVDGDLLLRLTEEELQTDLGMKSGITRKRFFRELTELKTFANYSTCDRSNLADWLGSLDPRFRQYTYGLVSCGLDRSLLHRVSEQQLLEDCGIHLGVHRARILTAAREMLHSPLPCTGGKPSGDTPDVFISYRRNSGSQLASLLKVHLQLHGFSVFIDVEKLEAGKFEDKLIQSVMGARNFVLVLSPGALDKCMQDHDCKDWVHKEIVTALSCGKNIVPIIDGFEWPEPQVLPEDMQAVLTFNGIKWSHEYQEATIEKIIRFLQGRSSRDSSAGSDTSLEGAAPMGPTATT
- axon degeneration (degeneration index) after axotomy of wildtype DRG neurons: 72 h

B6: SARM1-E642A (enzyme, not shown: large carriers)
chain: LAVPGPDGGGGTGPWWAAGGRGPREVSPGAGTEVQDALERALPELQQALSALKQAGGARAVGAGLAEVFQLVEEAWLLPAVGREVAQGLCDAIRLDGGLDLLLRLLQAPELETRVQAARLLEQILVAENRDRVARIGLGVILNLAKEREPVELARSVAGILEHMFKHSEETCQRLVAAGGLDAVLYWCRRTDPALLRHCALALGNCALHGGQAVQRRMVEKRAAEWLFPLAFSKEDELLRLHACLAVAVLATNKEVEREVERSGTLALVEPLVASLDPGRFARCLVDASDTSQGRGPDDLQRLVPLLDSNRLEAQCIGAFYLCAEAAIKSLQGKTKVFSDIGAIQSLKRLVSYSTNGTKSALAKRALRLLGEEVPRPILPSVPSWKEAEVQTWLQQIGFSKYCESFREQQVDGDLLLRLTEEELQTDLGMKSGITRKRFFRELTELKTFANYSTCDRSNLADWLGSLDPRFRQYTYGLVSCGLDRSLLHRVSEQQLLEDCGIHLGVHRARILTAAREMLHSPLPCTGGKPSGDTPDVFISYRRNSGSQLASLLKVHLQLHGFSVFIDVEKLEAGKFEDKLIQSVMGARNFVLVLSPGALDKCMQDHDCKDWVHKAIVTALSCGKNIVPIIDGFEWPEPQVLPEDMQAVLTFNGIKWSHEYQEATIEKIIRFLQGRSSRDSSAGSDTSLEGAAPMGPTATT
- mitochondrial membrane potential (TMRM fluorescence) in severed axons of wildtype DRG neurons: 24 h
